Experimental data: article PMC6168074 (Cell reports, 2017)
One block for each molecule: values may come before it.

Tests used:
Damb (DAMB) = molecular target: T1, Damb (DAMB) (Drosophila melanogaster, UniProt Q24563); test: real-time BRET G protein activation assay, HEK293T/[…] cells; format: cell-based
T1 sequence (Q24563 1-539): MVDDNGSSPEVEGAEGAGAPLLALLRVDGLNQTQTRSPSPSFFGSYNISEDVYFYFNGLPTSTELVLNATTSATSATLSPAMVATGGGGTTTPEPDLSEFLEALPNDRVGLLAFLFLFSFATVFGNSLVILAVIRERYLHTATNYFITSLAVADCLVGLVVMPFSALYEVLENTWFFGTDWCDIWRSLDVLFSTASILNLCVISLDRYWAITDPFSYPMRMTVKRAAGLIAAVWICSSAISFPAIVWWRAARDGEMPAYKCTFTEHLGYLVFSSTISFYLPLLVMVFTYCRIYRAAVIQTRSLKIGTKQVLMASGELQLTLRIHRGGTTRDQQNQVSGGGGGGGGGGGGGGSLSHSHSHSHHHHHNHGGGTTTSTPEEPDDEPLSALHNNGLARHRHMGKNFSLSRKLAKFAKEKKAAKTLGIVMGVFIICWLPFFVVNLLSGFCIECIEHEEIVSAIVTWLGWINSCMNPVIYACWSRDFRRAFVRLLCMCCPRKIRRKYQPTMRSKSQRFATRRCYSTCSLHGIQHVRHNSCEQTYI

[1] = molecular target: Drosophila Gαq isoform G (Drosophila)
[2] = molecular target: Drosophila Gαs isoform A (Drosophila)

EC50 (Damb (DAMB)): 56.7 ± 7.7 nM
Molecule: NCCc1ccc(O)c(O)c1 [dopamine]

rate of G protein activation (BRET, 100 μM DA, HEK293T/17 cells) [1]: 2.71 s⁻¹
rate of G protein activation (BRET, 100 μM DA, HEK293T/17 cells) [2]: 0.46 s⁻¹
B1: Damb (DopAmine receptor expressed in Mushroom Bodies) (receptor)
chain: T1 sequence (Q24563 1-539)
